Measured values as given in patent US6897296.
pKi: −log10 of the molar value.

Molecular target: bacterially expressed recombinant Mch4 (GST-Mch4 fusion protein) (human)

DEVD-CHO (tetrapeptide DEVD aldehyde)
pKi: 7.85
